Experiments:
[1] = molecular target: T1, human β-Klotho extracellular domain (aa1–992) fused with a 6 × His tag at the C-terminus (human, UniProt Q86Z14 1-992, biotin (EZ-Link Sulfo-NHS-LC-Biotin) in the bio-layer interferometry); test: BLI
[2] = molecular target: T1, human β-Klotho extracellular domain …; test: ELISA; solid-phase binding assay
[3] = molecular target: T1, human β-Klotho extracellular domain …; test: AlphaScreen, competition with FGF21
[4] = molecular target: T1, human β-Klotho extracellular domain …; test: AlphaScreen, biotinylated FGF
[5] = molecular target: T1, human β-Klotho extracellular domain …; test: AlphaScreen, competition with FGF19
[6] = molecular target: T1, human β-Klotho extracellular domain …; test: competition with FGF19 (AlphaScreen)
[7] = molecular target: T1, human β-Klotho extracellular domain …; test: competition with FGF21 (AlphaScreen)

T1 sequence (Q86Z14 53-992): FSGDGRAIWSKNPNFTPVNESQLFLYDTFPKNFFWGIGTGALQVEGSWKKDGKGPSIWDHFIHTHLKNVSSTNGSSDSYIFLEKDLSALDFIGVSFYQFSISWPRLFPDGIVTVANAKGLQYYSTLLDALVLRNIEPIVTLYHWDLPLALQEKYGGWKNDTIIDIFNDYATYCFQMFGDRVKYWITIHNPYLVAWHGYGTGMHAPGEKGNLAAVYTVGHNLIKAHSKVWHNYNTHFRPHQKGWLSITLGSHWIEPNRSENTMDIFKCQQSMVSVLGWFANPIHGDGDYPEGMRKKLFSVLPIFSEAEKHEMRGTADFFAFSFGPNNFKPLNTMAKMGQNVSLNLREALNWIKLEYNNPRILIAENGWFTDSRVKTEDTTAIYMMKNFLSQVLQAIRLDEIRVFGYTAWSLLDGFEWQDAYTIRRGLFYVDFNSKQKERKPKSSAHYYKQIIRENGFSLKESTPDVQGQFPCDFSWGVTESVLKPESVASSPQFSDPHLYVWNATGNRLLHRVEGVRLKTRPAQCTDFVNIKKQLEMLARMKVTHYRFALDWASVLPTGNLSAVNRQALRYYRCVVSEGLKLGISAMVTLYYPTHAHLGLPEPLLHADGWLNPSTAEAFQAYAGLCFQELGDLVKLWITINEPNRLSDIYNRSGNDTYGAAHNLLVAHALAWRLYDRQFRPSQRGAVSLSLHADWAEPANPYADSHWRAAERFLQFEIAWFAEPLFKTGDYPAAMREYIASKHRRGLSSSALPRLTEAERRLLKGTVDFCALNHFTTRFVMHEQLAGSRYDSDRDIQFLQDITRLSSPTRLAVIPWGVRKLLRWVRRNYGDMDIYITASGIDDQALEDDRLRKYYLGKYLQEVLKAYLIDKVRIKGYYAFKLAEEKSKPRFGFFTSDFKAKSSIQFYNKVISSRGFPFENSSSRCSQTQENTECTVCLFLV

Binder | IC50 [6] [nM] | IC50 [7] [nM] | other results
mature human FGF21 polypeptide fused with the human Fc fragment at the N-terminus (Fc-FGF21), wild type (Fc fusion) HPIPDSSPLLQFGGQVRQRYLYTDDAQQTEAHLEIREDGTVGGAADQSPESLLQLKALKPGVIQILGVKTSRFLCQRPDGALYGSLHFDPEACSFRELLLEDGYNVYQSEAHGLPLHLPGNKSPHRDPAPRGPARFLPLPGLPPALPEPPGILAPQPPDVGSSDPLSMVGPSQGRSPSYAS |  |  | Kd [1]: 1.36 nM; EC50 [2]: 0.6 nM
mature human FGF21 (ligand, biotin (EZ-Link Sulfo-NHS-LC-Biotin) in the solid-phase binding assay; biotinylated as the labelled ligand in AlphaScreen) HPIPDSSPLLQFGGQVRQRYLYTDDAQQTEAHLEIREDGTVGGAADQSPESLLQLKALKPGVIQILGVKTSRFLCQRPDGALYGSLHFDPEACSFRELLLEDGYNVYQSEAHGLPLHLPGNKSPHRDPAPRGPARFLPLPGLPPALPEPPGILAPQPPDVGSSDPLSMVGPSQGRSPSYAS |  |  | IC50 [3]: 23.1 nM; Kd [1]: 5.17 nM; EC50 [4]: 2.81 nM; IC50 [5]: 5.7 nM
SDMFSSPLETDSMDPFGLVTGLEAVRSPSFEK [FGF19 C-terminal peptide, WT FGF19^185–216] |  |  | IC50 [3]: 346 nM; IC50 [5]: 46.7 nM
PQPPDVGSSDPLSMVGPSQGRSPSYAS [FGF21 183-209] | 0.52 | 2.1 | 
AQPPDVGSSDPLSMVGPSQGRSPSYAS [FGF21 183-209 183P-A] | 1 | 4.5 | 
PQPPDVGSSDALSMVGPSQGRSPSYAS [FGF21 183-209 193P-A] | 5.5 |  | 
PQPPDAGSSDPLSMVGPSQGRSPSYAS [FGF21 183-209 188V-A] | 5.2 |  | 

Continued, in another order:

IC50 [6] [nM] | IC50 [7] [nM] | Binder | other results
0.28 |  | PQPPDVGSSDPLSMVGPSQGASPSYAS [FGF21 183-209 203R-A] | 
2.6 | 6 | PQPPDVGSSDPLSMVAPSQGRSPSYAS [FGF21 183-209 198G-A] | 
